{
  "source": "patent US20250154213A1",
  "about": "“De Novo Designed Cortisol Biosensor” (University of Washington, priority 2023, published 2025)",
  "molecules": {"B1": {"name": "mini11-LgBiT (designed binder)", "chain": "MSSASTLVKTFSLCMEALSIEDPEKREEVYEKARKLAEENNDPAALFLVESIKKQHEQSGGSGGMVFTLEDFVGDWEQTAAYNLDQVLEQGGVSSLLQNLAVSVTPIQRIVRSGENALKIDIHVIIPYEGLSADQMAQIEEVFKVVYPVDDHHFKVILPYGTLVIDGVTPNMLNYFGRPYEGIAVFDGKKITVTGTLWNGNKIIDERLITPDGSMLFRVTINS"}, "B2": {"name": "mini11: designed 3-helix bundle minibinder that binds seq129.1_CID only with cortisol (protein)", "chain": "MSSASTLVKTFSLCMEALSIEDPEKREEVYEKARKLAEENNDPAALFLVESIKKQHEQSSSLE"}},
  "key": {"[1]": {"system": "seq129.1_CID-SmBiT and mini11-LgBiT", "assay": "Cortisol sensing with NanoBiT fusions (luminescence on cortisol titration)", "assay_type": "biochemical", "settings": "seq129.1_CID-SmBiT and mini11-LgBiT mixed equimolar, cortisol 2-3 hours, DTZ 25 μM; estimated; read-out: EC50 of luminescent signal on cortisol titration", "text": "FIG. 2. Design and characterization of a cortisol-dependent heterodimer. (A) Design pipeline for cortisol-induced heterodimerization. Starting from a model of seq129.1_CID in complex with cortisol (top), we used RIFdock™ and a library of designed 3-helix bundles to generate thousands of putative ternary complexes (middle), and amino acid sequences encoding these complexes were generated with FastDesign™ and ProteinMPNN™ (bottom). Zoom-in of the designed CID ternary complex (seq129.1_CID, mini11, and cortisol) (bottom panel). (B) Size-exclusion chromatography traces of an equimolar solution of seq129.1 and mini11 (1 μM) in the presence or absence of cortisol (10 μM). (C) Schematic diagram of the designed cortisol-induced heterodimerization coupled with a binary split luciferase to create a biosensor. […]\nAs a proof-of-concept for the application of the designed CID as a sensor for cortisol, we genetically fused seq129.1_CID and mini11 to the SmBiT and LgBiT components of the NanoBiT™ system, respectively, which reconstitutes NanoBiT™ and generates luminescence when brought in close proximity by a molecular interaction 18.\nseq129.1_CID and mini11 were genetically fused to SmBiT and LgBiT, respectively, and ordered as eblocks from IDT. […] Immediately after adding DTZ, the luminescent signal was measured on a Neo2 plate reader. […]"}, "seq129.1_CID-SmBiT": {"molecular_target": "T1, seq129.1_CID-SmBiT", "T1 chain": "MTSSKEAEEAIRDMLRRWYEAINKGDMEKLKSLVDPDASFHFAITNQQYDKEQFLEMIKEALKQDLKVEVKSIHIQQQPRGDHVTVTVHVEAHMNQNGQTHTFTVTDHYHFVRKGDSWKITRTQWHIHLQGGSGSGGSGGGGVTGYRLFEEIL", "assay": "cell-based or functional assay"}, "seq129.1_CID": {"system": "seq129.1_CID", "assay": "Native mass spectrometry of the ternary complex", "assay_type": "binding", "settings": "cortisol and mini11"}},
  "data": [
    {"molecule": "C[C@]12CCC(=O)C=C1CC[C@@H]1[C@@H]2[C@@H](O)C[C@@]2(C)[C@H]1CC[C@]2(O)C(=O)CO", "note": "[cortisol]", "values": [
      {"measurement": "EC50", "setting": "[1]", "value": 25, "unit": "nM"}
    ]},
    {"molecule": "B1", "values": [
      {"measurement": "luminescent signal of reconstituted NanoBiT on titration with cortisol (the EC50 is a cortisol concentration)", "setting": "seq129.1_CID-SmBiT", "value": 25, "unit": "nM"}
    ]},
    {"molecule": "B2", "values": [
      {"measurement": "ternary complex by native mass spectrometry", "setting": "seq129.1_CID", "value": "revealed a molecular weight for the seq129.1_CID-cortisol-mini11 ternary complex"}
    ]}
  ]
}
